Test results published in the RNAGym collection of RNA variant scans (doi:10.1093/molbev/msab373).

B1: Azoarcus group I ribozyme (parent)
chain: GUGCCUUGCGCCGGGAAACCACGCAAGGGAUGGUGUCAAAUUCGGCGAAACCUAAGCGCCCGCCCGGGCGUAUGGCAACGCCGAGCCAAGCUUCGGCGCCUGCGCCGAUGAAGGUGUAGAGACUAGACGGCACCCACCUAAGGCAAACGCUAUGGUGAAGGCAUAGUCCAGGGAGUGGCGAAAGUCACACAAACCGG

Variants of: B1
Test: reverse-splicing fitness (ratio to wild type); higher = more active; in vitro selection; Mg2+ level not given
Method in brief: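 An in vitro group I ribozyme library with randomized positions was T7-transcribed and gel-purified. In triplicate, 10 pmol RNA in EPPS pH 7.5 was reacted with 50 pmoles of a 30-nt RNA substrate for 1 h at 37 °C across several added MgCl2 levels (1–48 mM), then stopped with EDTA. Products were reverse transcribed from a substrate-complementary primer, PCR-amplified and sequenced (HiSeq 4000). Fitness is a variant's read proportion after selection over that before, normalised to wild type.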

Variant | reverse-splicing fitness
C82U A111U A120C A145G C150G C169U U176G | 0.00719
C82U A111U A120C A145G C150G C169U U176C | 0.0128
C82U A111U A120C A145G C150G C169U U176A | 0.0113
C82U A111U A120C A145G C150G C169U | 0.00911
C82U A111U A120C A145G C150G C169G | 0.00731
C82U A111U A120G A145U C150G | 0.00635
C82U A111U A120G A145U C150A | 0.00808
C82U A111U A120G A145U C150U | 0.0114
C82U A111U A120C C169G U176G | 0.0049
C82U A111U A120C C169G U176A | 0.0148
C82U A111U A120C C169G U176C | 0.018
C82U A111U A120G A145G C150G C169G | 0.00719
C82U A111U A120G A145G C150G C169A | 0.00888
C82U A111U A120G A145G C150G C169U | 0.0089
C82U A111U A120C A145U C150G U176G | 0.00331
C82U A111U A120C A145U C150G U176C | 0.00709
C82U A111U A120C A145U C150G U176A | 0.00587
C82U A111U A120G A145C C169U | 0.00777
C82U A111U A120G A145C C169G | 0.00962
C82U A111U A120G A145C C169A | 0.007
C82U A111U A120C A145U U176A | 0.0127

Variant | reverse-splicing fitness
C82U A111U A120C A145U U176C | 0.0165
C82U A111U A120C A145U U176G | 0.00445
C82U A111U A120C C150G C169A U176G | 0.00603
C82U A111U A120C C150G C169A U176A | 0.0105
C82U A111U A120C C150G C169A U176C | 0.0101
C82U A111U A120G A145G C169A U176G | 0.00433
C82U A111U A120G A145G C169A U176A | 0.0205
C82U A111U A120G A145G C169A U176C | 0.031
C82U A111U A120G A145C C150A C169G U176G | 0.00478
C82U A111U A120G A145C C150A C169G U176A | 0.0242
C82U A111U A120G A145C C150A C169G U176C | 0.0136
C82U A111U A120G A145C C150G C169U U176A | 0.0142
C82U A111U A120G A145C C150G C169U U176C | 0.0113
C82U A111U A120G A145C C150G C169U U176G | 0.00495
C82U A111U A120C C169G | 0.00824
C82U A111U A120C C169U | 0.0117
C82U A111U A120C C169A | 0.00717
C82U A111U A120C A145U C150G C169U U176C | 0.0122
C82U A111U A120C A145U C150G C169U U176A | 0.00894
C82U A111U A120C A145U C150G C169U U176G | 0.00523
C82U A111U A120G A145C C150U C169A U176A | 0.0102

Variant | reverse-splicing fitness
C82U A111U A120G A145C C150U C169A U176G | 0.00482
C82U A111U A120G A145C C150U C169A U176C | 0.00544
C82U A111U A120C C150A U176A | 0.0126
C82U A111U A120C C150A U176G | 0.0056
C82U A111U A120C C150A U176C | 0.0189
C82U A111U A120G A145G U176C | 0.0197
C82U A111U A120G A145G U176A | 0.0127
C82U A111U A120G A145G U176G | 0.00453
C82U A111U A120C U176A | 0.0144
C82U A111U A120C U176G | 0.00482
C82U A111U A120C U176C | 0.0191
C82U A111U A120G A145U C150A C169U U176G | 0.00425
C82U A111U A120G A145U C150A C169U U176C | 0.0141
C82U A111U A120G A145U C150A C169U U176A | 0.0203
C82U A111U A120C A145U C150U C169U U176C | 0.0157
C82U A111U A120C A145U C150U C169U U176G | 0.00516
C82U A111U A120C A145U C150U C169U U176A | 0.0145
C82U A111U A120G A145C C150U C169U U176C | 0.00897
C82U A111U A120G A145C C150U C169U U176A | 0.0187
C82U A111U A120G A145C C150U C169U U176G | 0.00401
C82U A111U A120G A145C C150G C169G | 0.0068

Variant | reverse-splicing fitness
C82U A111U A120G A145C C150G C169U | 0.00686
C82U A111U A120G A145C C150G C169A | 0.00779
C82U A111U A120C A145G C150U U176G | 0.00597
C82U A111U A120C A145G C150U U176C | 0.0214
C82U A111U A120C A145G C150U U176A | 0.0116
C82U A111U A120C A145U C150A C169U U176A | 0.0145
C82U A111U A120C A145U C150A C169U U176C | 0.0156
C82U A111U A120C A145U C150A C169U U176G | 0.00498
C82U A111U A120C C150A C169G U176A | 0.0178
C82U A111U A120C C150A C169G U176C | 0.0181
C82U A111U A120C C150A C169G U176G | 0.00669
C82U A111U A120G A145G C150G C169A U176C | 0.0113
C82U A111U A120G A145G C150G C169A U176G | 0.00764
C82U A111U A120G A145G C150G C169A U176A | 0.0128
C82U A111U A120C A145U C150G C169A U176A | 0.00915
C82U A111U A120C A145U C150G C169A U176C | 0.00923
C82U A111U A120C A145U C150G C169A U176G | 0.0051
C82U A111U A120C A145G C150U C169A U176C | 0.0136
C82U A111U A120C A145G C150U C169A U176G | 0.00576
C82U A111U A120C A145G C150U C169A U176A | 0.017
